Results reported in patent publication US20180319842A1 (TUFTS MEDICAL CENTER, published 2018).
Groups on a side chain read outwards from the residue. No end group written: not given here. *: point of attachment. PEG8 = NCCOCCOCCOCCOCCOCCOCCOCCOCCC(=O)O; Palmitoyl = CCCCCCCCCCCCCCCC(=O)*

Legend:
Assay in all cases: cell-based or functional assay
[1] = target: T1, Mas-related G protein-coupled receptor X1 (MrgprX1), wild type (human, UniProt Q96LB2 1-322)
MrgprX1 H133R variant = MrgprX1 H133R variant (human, UniProt Q96LB2 1-322)
MrgprX1 H137R variant = MrgprX1 H137R variant (human, UniProt Q96LB2 1-322)
MrgprX1 F273L variant = MrgprX1 F273L variant (human, UniProt Q96LB2 1-322)
MrgprX1 R55L variant = MrgprX1 R55L variant (human, UniProt Q96LB2 1-322)
[2] = target: T1, Mas-related G protein-coupled receptor …; remark: listed apart in the source
MrgprX1 I36V variant = MrgprX1 I36V variant (human, UniProt Q96LB2 1-322)
MrgprX1 R131S variant = MrgprX1 R131S variant (human, UniProt Q96LB2 1-322)
MrgprX1 A46T variant = MrgprX1 A46T variant (human, UniProt Q96LB2 1-322)
Chain of MrgprX1 A46T variant (Q96LB2 whole entry A46T): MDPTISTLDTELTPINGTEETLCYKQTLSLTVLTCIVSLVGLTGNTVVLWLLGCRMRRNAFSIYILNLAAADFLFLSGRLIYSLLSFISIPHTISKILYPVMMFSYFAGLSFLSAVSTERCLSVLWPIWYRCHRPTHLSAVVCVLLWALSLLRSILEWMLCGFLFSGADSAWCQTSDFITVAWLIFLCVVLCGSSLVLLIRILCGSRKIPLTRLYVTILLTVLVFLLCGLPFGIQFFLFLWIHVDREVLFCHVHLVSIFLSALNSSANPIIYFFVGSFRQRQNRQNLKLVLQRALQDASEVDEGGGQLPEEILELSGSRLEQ

Chain of MrgprX1 R131S variant (Q96LB2 whole entry R131S): as the sequence (Q96LB2 whole entry A46T) above, with T46A, R131S counted along it
Chain of MrgprX1 H137R variant (Q96LB2 whole entry H137R): as the sequence (Q96LB2 whole entry A46T) above, with T46A, H137R counted along it
Chain of MrgprX1 R55L variant (Q96LB2 whole entry R55L): as the sequence (Q96LB2 whole entry A46T) above, with T46A, R55L counted along it
Chain of MrgprX1 F273L variant (Q96LB2 whole entry F273L): as the sequence (Q96LB2 whole entry A46T) above, with T46A, F273L counted along it
Chain of MrgprX1 H133R variant (Q96LB2 whole entry H133R): as the sequence (Q96LB2 whole entry A46T) above, with T46A, H133R counted along it
Chain of MrgprX1 I36V variant (Q96LB2 whole entry I36V): as the sequence (Q96LB2 whole entry A46T) above, with I36V, T46A counted along it
T1 sequence (Q96LB2 whole entry): as the sequence (Q96LB2 whole entry A46T) above, with T46A counted along it

VGRPEWWMDYQKRYGGGK([PEG8-Palmitoyl]) [Lipidated BAM8-22]
potency relative to soluble BAM8-22, SRE-luciferase reporter, HEK293 cells [1]: ~100 fold higher potency than soluble BAM8-22
Curve Maximum, SRE-luciferase reporter, HEK293 cells (MrgprX1 H133R variant): 110 % of WT signal at 10^-6 M lipidated BAM8-22
EC50 (nM), SRE-luciferase reporter, HEK293 cells (MrgprX1 H133R variant): 8.6 nM
pEC50, SRE-luciferase reporter, HEK293 cells (MrgprX1 H133R variant): 8.06
Curve Maximum, SRE-luciferase reporter, HEK293 cells (MrgprX1 H137R variant): 109 % of WT signal at 10^-6 M lipidated BAM8-22
EC50 (nM), SRE-luciferase reporter, HEK293 cells (MrgprX1 H137R variant): 7.9 nM
pEC50, SRE-luciferase reporter, HEK293 cells (MrgprX1 H137R variant): 8.1
Curve Maximum, SRE-luciferase reporter, HEK293 cells (MrgprX1 F273L variant): 95.9 % of WT signal at 10^-6 M lipidated BAM8-22
EC50 (nM), SRE-luciferase reporter, HEK293 cells (MrgprX1 F273L variant): 12.1 nM
pEC50, SRE-luciferase reporter, HEK293 cells (MrgprX1 F273L variant): 7.92
Curve Maximum, SRE-luciferase reporter, HEK293 cells (MrgprX1 R55L variant): 108 % of WT signal at 10^-6 M lipidated BAM8-22
EC50 (nM), SRE-luciferase reporter, HEK293 cells (MrgprX1 R55L variant): 10.2 nM
pEC50, SRE-luciferase reporter, HEK293 cells (MrgprX1 R55L variant): 7.99
Curve Maximum, SRE-luciferase reporter, HEK293 cells [2]: 101 % of WT signal at 10^-6 M lipidated BAM8-22
EC50 (nM), SRE-luciferase reporter, HEK293 cells [2]: 12 nM
pEC50, SRE-luciferase reporter, HEK293 cells [2]: 7.92
Curve Maximum, SRE-luciferase reporter, HEK293 cells (MrgprX1 I36V variant): 109 % of WT signal at 10^-6 M lipidated BAM8-22
EC50 (nM), SRE-luciferase reporter, HEK293 cells (MrgprX1 I36V variant): 9.3 nM
pEC50, SRE-luciferase reporter, HEK293 cells (MrgprX1 I36V variant): 8.03
Curve Maximum, SRE-luciferase reporter, HEK293 cells (MrgprX1 R131S variant): 40.4 % of WT signal at 10^-6 M lipidated BAM8-22
EC50 (nM), SRE-luciferase reporter, HEK293 cells (MrgprX1 R131S variant): 57.1 nM
pEC50, SRE-luciferase reporter, HEK293 cells (MrgprX1 R131S variant): 7.24
Curve Maximum, SRE-luciferase reporter, HEK293 cells (MrgprX1 A46T variant): 112 % of WT signal at 10^-6 M lipidated BAM8-22
EC50 (nM), SRE-luciferase reporter, HEK293 cells (MrgprX1 A46T variant): 9.5 nM
pEC50, SRE-luciferase reporter, HEK293 cells (MrgprX1 A46T variant): 8.02
